Results: US20220305006

Tests used:
[1] = biological target: BACE inhibitor 1 (statine BACE inhibitor 1)
[2] = biological target: T1, Peptide 65005
T1 chain: NLTTYPYFIPL

[3] = biological target: T2, Peptide 65007
T2 chain: ALYPYFLPISAK

[4] = biological target: recombinant sAPPα, human, amino acids 19-613, P05067
Chain of recombinant sAPPα, human, amino acids 19-613, P05067 (P05067 19-613): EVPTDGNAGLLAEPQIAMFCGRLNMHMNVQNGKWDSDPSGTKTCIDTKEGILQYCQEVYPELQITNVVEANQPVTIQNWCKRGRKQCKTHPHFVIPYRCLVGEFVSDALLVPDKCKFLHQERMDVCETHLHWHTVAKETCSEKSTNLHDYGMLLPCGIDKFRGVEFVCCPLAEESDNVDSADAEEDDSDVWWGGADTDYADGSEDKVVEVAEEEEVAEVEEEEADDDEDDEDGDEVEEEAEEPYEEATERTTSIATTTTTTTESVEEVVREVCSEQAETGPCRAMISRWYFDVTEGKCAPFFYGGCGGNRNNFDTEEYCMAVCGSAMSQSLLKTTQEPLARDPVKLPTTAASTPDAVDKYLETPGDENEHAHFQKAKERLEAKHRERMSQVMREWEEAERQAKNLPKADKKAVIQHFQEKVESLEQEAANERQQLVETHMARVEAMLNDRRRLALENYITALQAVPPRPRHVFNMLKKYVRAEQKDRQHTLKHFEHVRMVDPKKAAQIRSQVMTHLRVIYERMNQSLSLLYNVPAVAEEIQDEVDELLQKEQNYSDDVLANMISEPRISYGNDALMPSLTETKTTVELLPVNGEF

B1: BACE in mouse primary cortical neurons (protein)
chain: ETDEESEEPGRRGSFVEMVDNLRGKSGQGYYVEMTVGSPPQTLNILVDTGSSNFAVGAAPHPFLHRYYQRQLSSTYRDLRKGVYVPYTQGKWEGELGTDLVSIPHGPNVTVRANIAAITESDKFFINGSNWEGILGLAYAEIARPDDSLEPFFDSLVKQTHIPNIFSLQLCGAGFPLNQTEALASVGGSMIIGGIDHSLYTGSLWYTPIRREWYYEVIIVRVEINGQDLKMDCKEYNYDKSIVDSGTTNLRLPKKVFEAAVKSIKAASSTEKFPDGFWLGEQLVCWQAGTTPWNIFPVISLYLMGEVTNQSFRITILPQQYLRPVEDVATSQDDCYKFAVSQSSTGTVMGAVIMEGFYVVFDRARKRIGFAVSACHVHDEFRTAAVEGPFVTADMEDCGYNIPQTDESTLMTIAYVMAAICALFMLPLCLMVCQWRCLRCLRHQHDDFADDISLLK
CHL1 and L1CAM cleavage (uncleaved substrate/α-tubulin OD ratio, immunoblot), 10 µM, 24 hours [1]: only BACE Inh 4 (blue) clearly inhibited cleavage; BACE Inh 1, peptides 65005 and 65007 and sAPPα did not | uncleaved neurofascin (immunoblot), 10 µM, 24 hours [1]: Only BACE Inh 4 and BACE Inh 1 treatment resulted in an increase of uncleaved NrCAM or neurofascin, respectively | CHL1 and L1CAM cleavage (uncleaved substrate/α-tubulin OD ratio, immunoblot), 10 µM, 24 hours [2]: only BACE Inh 4 (blue) clearly inhibited cleavage; BACE Inh 1, peptides 65005 and 65007 and sAPPα did not | uncleaved NrCAM and neurofascin (immunoblot), 10 µM, 24 hours [2]: none of the other inhibitors increased the amount of uncleaved NrCAM or neurofascin substrate | CHL1 and L1CAM cleavage (uncleaved substrate/α-tubulin OD ratio, immunoblot), 10 µM, 24 hours [3]: only BACE Inh 4 (blue) clearly inhibited cleavage; BACE Inh 1, peptides 65005 and 65007 and sAPPα did not | uncleaved NrCAM and neurofascin (immunoblot), 10 µM, 24 hours [3]: none of the other inhibitors increased the amount of uncleaved NrCAM or neurofascin substrate | CHL1 and L1CAM cleavage (uncleaved substrate/α-tubulin OD ratio, immunoblot), 1 µM, 24 hours [4]: only BACE Inh 4 (blue) clearly inhibited cleavage; BACE Inh 1, peptides 65005 and 65007 and sAPPα did not | uncleaved NrCAM and neurofascin (immunoblot), 1 µM, 24 hours [4]: none of the other inhibitors increased the amount of uncleaved NrCAM or neurofascin substrate
